Results as given in publication PMC9158119 (2022).

Target: SARS-CoV-2 original strain spike receptor-binding domain (S-RBD) (SARS-CoV-2, UniProt P0DTC2 320-537)
Assay: SPR

B1: Nb-007 (VHH)
VHH: QLQLVESGGGLVQAGGSMRLSCAASISFSSFPMGWHRQAPGKQRELVAKTGIGGTAYDDSVKGRFTISRDNTKNTVYLQMNSLKVEDTAVYYCWGWRMNDYWGQGTQVTVSS
Binder B1 has a koff of 0.00103 s⁻¹.
